One data set deals with T1, OC2R479 (human, UniProt O95948 330-485, R479A).
T1 sequence: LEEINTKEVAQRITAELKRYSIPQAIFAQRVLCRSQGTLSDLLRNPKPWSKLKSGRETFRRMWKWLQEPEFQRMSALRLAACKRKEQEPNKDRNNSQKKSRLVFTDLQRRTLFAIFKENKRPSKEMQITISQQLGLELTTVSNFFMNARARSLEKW
Kind of data set: ITC; ITC: 1X PBS pH 7.4, 0.005% Tween-20, 1 mM beta-ME, 25 C (also 12 and 30 C for heat capacity); BLI: 1X PBS, 0.5 mM TCEP, 0.005% Tween-20. The conditions noted are these: protein: recombinant; tags: His6 removed by TEV.

The target of a further data set is T2, OC2N (human, UniProt O95948 330-485, N476A).
T2 sequence: T1 sequence with N147A, A150R
The description is as above. The conditions noted are these: protein: recombinant; tags: His6 removed by TEV.

The next data set concerns the target T3, OC2R480 (human, UniProt O95948 330-485, R480A).
T3 sequence: T1 sequence with A150R, R151A
The description is as above. The settings on record: protein: recombinant; tags: His6 removed by TEV.

The next data set deals with T4, OC2SQ (human, UniProt O95948 330-485, S364A;Q365A).
T4 sequence: T1 sequence with S35A, Q36A, A150R
The description is as above. The conditions noted are these: protein: recombinant; tags: His6 removed by TEV.

Another data set has as its target T5, OC2 CUT domain (human, UniProt O95948 317-417).
T5 sequence: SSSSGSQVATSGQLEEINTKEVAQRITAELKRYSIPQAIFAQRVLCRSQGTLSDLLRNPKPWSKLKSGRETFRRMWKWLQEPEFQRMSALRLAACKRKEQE
The data set is described as follows: ITC; 25 C; ITC: 1X PBS pH 7.4, 0.005% Tween-20, 1 mM beta-ME, 25 C (also 12 and 30 C for heat capacity); BLI: 1X PBS, 0.5 mM TCEP, 0.005% Tween-20. The settings on record: protein: recombinant; tags: His6-MBP, removed by TEV (same protocol as OC2).

For data set [1], the target named is T6, OC2 (CUT-HOX DNA binding region, wild type) (human, UniProt O95948 330-485).
T6 sequence: T1 sequence with A150R
Described as above. The settings on record: protein: recombinant; tags: His6 removed by TEV.

The target of data set [2] is T7, OC2 CUT domain;OC2 HOX domain (human;human, UniProt O95948;O95948 317-417;420-490, |).
T7 sequence 1: T5 sequence
T7 sequence 2: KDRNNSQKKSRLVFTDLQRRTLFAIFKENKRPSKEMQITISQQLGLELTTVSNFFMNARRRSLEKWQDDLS
Kind of data set: ITC; CUT and HOX as separate polypeptides; ITC: 1X PBS pH 7.4, 0.005% Tween-20, 1 mM beta-ME, 25 C (also 12 and 30 C for heat capacity); BLI: 1X PBS, 0.5 mM TCEP, 0.005% Tween-20. The settings on record: protein: recombinant;recombinant; copies: 1;1.

Data set [3] concerns the target T8, ONECUT2 (OC2) residues 317-417, containing the CUT domain (Homo sapiens (Human), UniProt O95948).
T8 chain: T5 sequence
Kind of data set: ITC (implied; data not shown); absence of DNA.

Positions count from the first letter of the chain named.

B1: PEG10 promoter DNA (12mer duplex) (dsDNA)
DNA 1: AGATCGATTTGC
DNA 2: GCAAATCGATCT
For the molecule B1, the dissociation constant Kd with OC2R479 worked out at 0.006 µM; with OC2N it was 0.07 ± 0.011 µM; in the data set with OC2R480, 0.047 µM; in the data set with OC2SQ, 0.051 ± 0.009 µM; with OC2 CUT domain, 2.03 ± 0.262 µM; in data set [1] it was 0.007 ± 0.002 µM. The Kd in data set [2] is 1.38 ± 0.279 µM.

B2: ONECUT2 (OC2) residues 420-490, containing the HOX domain (protein)
chain: T7 sequence 2
With B2, the binding result in data set [3] is “no binding”.

Source of the values: PMC11490551, “The homeodomain regulates stable DNA binding of prostate cancer target ONECUT2”.
